Measurements from patent US20220098307A1 (WUHAN YZY BIOPHARMA, published 2022).

What was measured:
Human CD3ε = biological target: T1, Human CD3ε (human, UniProt P07766 23-126); experiment: flow cytometry, human T cells
T1 construct: CD3 on T cells isolated from human whole blood
In short: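 Cells expressing the target antigen (CD38+ MM.1S or RPMI 8226 for CD38; isolated T cells for CD3) were plated at 2×10⁵ per well in 1% FBS-PBS on ice. Antibody was titrated 3-fold over 11 points from 3000 nM and incubated 2 h at 4° C with shaking, followed by PE anti-human IgG Fc.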

human CEA = biological target: T2, human CEA (human, UniProt P06731 35-685); experiment: flow cytometry, human tumor cells (CEA+)
T2 sequence: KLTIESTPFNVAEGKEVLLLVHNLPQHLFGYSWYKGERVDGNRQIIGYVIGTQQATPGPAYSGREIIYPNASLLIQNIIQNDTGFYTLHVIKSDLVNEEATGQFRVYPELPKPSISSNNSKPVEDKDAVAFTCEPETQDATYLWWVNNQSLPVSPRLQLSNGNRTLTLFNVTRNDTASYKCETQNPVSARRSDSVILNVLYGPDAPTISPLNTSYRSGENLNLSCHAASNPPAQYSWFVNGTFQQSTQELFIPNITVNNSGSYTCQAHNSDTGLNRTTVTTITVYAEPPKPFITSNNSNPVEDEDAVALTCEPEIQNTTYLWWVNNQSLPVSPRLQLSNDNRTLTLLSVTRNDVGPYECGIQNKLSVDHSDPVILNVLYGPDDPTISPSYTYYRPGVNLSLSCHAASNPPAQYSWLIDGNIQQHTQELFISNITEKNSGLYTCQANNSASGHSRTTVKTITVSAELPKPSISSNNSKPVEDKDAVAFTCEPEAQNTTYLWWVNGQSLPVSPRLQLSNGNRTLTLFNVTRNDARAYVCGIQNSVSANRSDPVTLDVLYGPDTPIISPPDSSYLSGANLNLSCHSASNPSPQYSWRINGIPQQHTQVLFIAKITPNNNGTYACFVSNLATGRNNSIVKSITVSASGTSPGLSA
Description: 1) Cell preparation: T cells isolated from CD3-positive human whole blood were used for a CD3 end affinity detection of multifunctional antibody molecule; positive tumor cells of corresponding antigen were used for detecting affinity of tumor antigen; for example, CD38-positive MM. 1S cells (purchased from the Cell Resource Center of Shanghai Institutes for Biological Sciences, Chinese Academy of Sciences) or RPMI 8226 cells (purchased from the Cell Resource Center of Shanghai Institutes for Biological Sciences, Chinese Academy of Sciences) were used for CD38 antigen detection, and PD-L1 positive H358 cells (purchased from the Cell Resource Center of Shanghai Institutes for Biological Sciences, Chinese Academy of Sciences) were used for PD-L1 antigen detection, and so on. The cells were resuspended with 1% FBS-PBS, adjusted to a density of 4×10⁶/ml, and 50 μl of cells were taken from each well, and then plated at 2×10⁵ per well. Cell plating was operated on ice
2) Addition of the antibody: according to the experimental design, the antibody was diluted gradually, and dilution of antibody was operated on ice. For example, the initial concentration of antibody for dilution was 3000 nM, and the antibody was diluted by 3 times with 11 concentration gradients. The diluted antibody was added to a cell well at 50 μl per well, mixed well, and shaked and incubated at 4° C. 1100 rpm/min for 2 h; after washing, the cells were resuspend in 1% FBS-PBS, and a diluted secondary antibody PE anti-human IgG FC (Biolegend, 409304) was added with a final concentration of 8 ug/ml and a volume of 50 μl/well. At the same time, a well only added with cells and secondary antibody was set as a control, the components were mixed well, and incubated under shaking at 1100 rpm/min at 4° C. for 1 h;
5) Data analysis: the data was analyzed by a flow analysis software FlowJo 7.6 thereby obtaining an average fluorescence intensity of the specific antibody concentration, plotted by a Graphpad Prism 5 with the antibody concentration (nM) as an abscissa and the average fluorescence intensity as an ordinate; the EC50 value was calculated by the method of One site—Specific binding, and the EC50 value indicated the cell affinity of the antibody to the corresponding target antigen.

Monkey CD3 = biological target: T3, Monkey CD3 (monkey); experiment: flow cytometry, monkey T cells
T3 construct: whole, on cells; also called CD3 of monkey CD3 positive T cells

Binder | EC50 (Human CD3ε) [nM] | EC50 (human CEA) [nM] | EC50 (Monkey CD3) [nM]
CEA-M3-WT (bispecific antibody, structure 3; CEA x CD3; CH2 WT; copies: 1 + 1 + 1 + 2) fusion heavy: not shown cross light: QTVVTQEPSLTVSPGGTVTLTCRSSTGAVTTSNYANWVQQKPGQAPRGLIGGTNKRAPGVPARFSGSLLGGKAALTLSGVQPEDEAEYYCALWYSNLWVFGGGTKVEIKSSASTKGPSVFPLAPSSKSTSGGTAALGCLVKDYFPEPVTVSWNSGALTSGVHTFPAVLQSSGLYSLSSVVTVPSSSLGTQTYICNVNHKPSNTKVDKKVEPKSC heavy: QVQLVQSGSELKKPGASVKVSCKASGYTFTVFGMNWVRQAPGQGLEWMGWINTKTGEATYVEEFKGRFVFSLDTSVSTAYLQISSLKADDTAVYYCARWDFYDYVEAMDYWGQGTTVTVSSASTKGPSVFPLAPSSKSTSGGTAALGCLVKDYFPEPVTVSWNSGALTSGVHTFPAVLQSSGLYSLSSVVTVPSSSLGTQTYICNVNHKPSNTKVDKKVEPKSCDKTHTCPPCPAPELLGGPSVFLFPPKPKDTLMISRTPEVTCVVVDVSHEDPEVKFNWYVDGVEVHNAKTKPREEQYNSTYRVVSVLTVLHQDWLNGKEYKCKVSNKALPAPIEKTISKAKGQPREPQVCTLPPSRDELTKNQVSLSCAVKGFYPSDIAVEWESNGQPENNYKTTPPVLDSDGSFFLVSKLTVDKSRWQQGNVFSCSVMHEALHNRFTQKSLSLSPGK light: DIQMTQSPSSLSASVGDRVTITCKASQNVGTNVAWYQQKPGKAPKLLIYSASYRYSGVPSRFSGSGSGTDFTFTISSLQPEDIATYYCHQYYTYPLFTFGQGTKVEIKRTVAAPSVFIFPPSDEQLKSGTASVVCLLNNFYPREAKVQWKVDNALQSGNSQESVTEQDSKDSTYSLSSTLTLSKADYEKHKVYACEVTHQGLSSPVTKSFNRGEC | 624 | 35.8 | 757
CEA-M3-AAG (bispecific antibody, structure 3; CEA x CD3; CH2 AAG; copies: 1 + 1 + 1 + 2) fusion heavy: not shown cross light: QTVVTQEPSLTVSPGGTVTLTCRSSTGAVTTSNYANWVQQKPGQAPRGLIGGTNKRAPGVPARFSGSLLGGKAALTLSGVQPEDEAEYYCALWYSNLWVFGGGTKVEIKSSASTKGPSVFPLAPSSKSTSGGTAALGCLVKDYFPEPVTVSWNSGALTSGVHTFPAVLQSSGLYSLSSVVTVPSSSLGTQTYICNVNHKPSNTKVDKKVEPKSC heavy: QVQLVQSGSELKKPGASVKVSCKASGYTFTVFGMNWVRQAPGQGLEWMGWINTKTGEATYVEEFKGRFVFSLDTSVSTAYLQISSLKADDTAVYYCARWDFYDYVEAMDYWGQGTTVTVSSASTKGPSVFPLAPSSKSTSGGTAALGCLVKDYFPEPVTVSWNSGALTSGVHTFPAVLQSSGLYSLSSVVTVPSSSLGTQTYICNVNHKPSNTKVDKKVEPKSCDKTHTCPPCPAPEAAGGPSVFLFPPKPKDTLMISRTPEVTCVVVDVSHEDPEVKFNWYVDGVEVHNAKTKPREEQYNSTYRVVSVLTVLHQDWLNGKEYKCKVSNKALGAPIEKTISKAKGQPREPQVCTLPPSRDELTKNQVSLSCAVKGFYPSDIAVEWESNGQPENNYKTTPPVLDSDGSFFLVSKLTVDKSRWQQGNVFSCSVMHEALHNRFTQKSLSLSPGK light: DIQMTQSPSSLSASVGDRVTITCKASQNVGTNVAWYQQKPGKAPKLLIYSASYRYSGVPSRFSGSGSGTDFTFTISSLQPEDIATYYCHQYYTYPLFTFGQGTKVEIKRTVAAPSVFIFPPSDEQLKSGTASVVCLLNNFYPREAKVQWKVDNALQSGNSQESVTEQDSKDSTYSLSSTLTLSKADYEKHKVYACEVTHQGLSSPVTKSFNRGEC | 646 | 30.1 | 662
CEA-M3-FES (bispecific antibody, human IgG1, kappa, structure 3; CEA x CD3; CH2 FES; copies: 1 + 1 + 1 + 2) fusion heavy: QVQLVQSGSELKKPGASVKVSCKASGYTFTVFGMNWVRQAPGQGLEWMGWINTKTGEATYVEEFKGRFVFSLDTSVSTAYLQISSLKADDTAVYYCARWDFYDYVEAMDYWGQGTTVTVSSASTKGPSVFPLAPSSKSTSGGTAALGCLVKDYFPEPVTVSWNSGALTSGVHTFPAVLQSSGLYSLSSVVTVPSSSLGTQTYICNVNHKPSNTKVDKKVEPKSCGGGGSGGGGSQVQLVESGGGVVQPGRSLRLSCAASGFTFSTYAMNWVRQAPGKGLEWVARIRSKYNNYATYYADSVKDRFTISRDDSKNTLYLQMNSLRAEDTAVYYCARHGNFGNSYVSWFAYWGQGTLVTVSSASVAAPSVFIFPPSDEQLKSGTASVVCLLNNFYPREAKVQWKVDNALQSGNSQESVTEQDSKDSTYSLSSTLTLSKADYEKHKVYACEVTHQGLSSPVTKSFNRGECDKTHTCPPCPAPEFEGGPSVFLFPPKPKDTLMISRTPEVTCVVVDVSHEDPEVKFNWYVDGVEVHNAKTKPREEQYNSTYRVVSVLTVLHQDWLNGKEYKCKVSNKALPASIEKTISKAKGQPREPQVYTLPPCRDELTKNQVSLWCLVKGFYPSDIAVEWESNGQPENNYKTTPPVLDSDGSFFLYSKLTVDKSRWQQGNVFSCSVMHEALHNHYTQKSLSLSPGK cross light: QTVVTQEPSLTVSPGGTVTLTCRSSTGAVTTSNYANWVQQKPGQAPRGLIGGTNKRAPGVPARFSGSLLGGKAALTLSGVQPEDEAEYYCALWYSNLWVFGGGTKVEIKSSASTKGPSVFPLAPSSKSTSGGTAALGCLVKDYFPEPVTVSWNSGALTSGVHTFPAVLQSSGLYSLSSVVTVPSSSLGTQTYICNVNHKPSNTKVDKKVEPKSC heavy: QVQLVQSGSELKKPGASVKVSCKASGYTFTVFGMNWVRQAPGQGLEWMGWINTKTGEATYVEEFKGRFVFSLDTSVSTAYLQISSLKADDTAVYYCARWDFYDYVEAMDYWGQGTTVTVSSASTKGPSVFPLAPSSKSTSGGTAALGCLVKDYFPEPVTVSWNSGALTSGVHTFPAVLQSSGLYSLSSVVTVPSSSLGTQTYICNVNHKPSNTKVDKKVEPKSCDKTHTCPPCPAPEFEGGPSVFLFPPKPKDTLMISRTPEVTCVVVDVSHEDPEVKFNWYVDGVEVHNAKTKPREEQYNSTYRVVSVLTVLHQDWLNGKEYKCKVSNKALPASIEKTISKAKGQPREPQVCTLPPSRDELTKNQVSLSCAVKGFYPSDIAVEWESNGQPENNYKTTPPVLDSDGSFFLVSKLTVDKSRWQQGNVFSCSVMHEALHNRFTQKSLSLSPGK light: DIQMTQSPSSLSASVGDRVTITCKASQNVGTNVAWYQQKPGKAPKLLIYSASYRYSGVPSRFSGSGSGTDFTFTISSLQPEDIATYYCHQYYTYPLFTFGQGTKVEIKRTVAAPSVFIFPPSDEQLKSGTASVVCLLNNFYPREAKVQWKVDNALQSGNSQESVTEQDSKDSTYSLSSTLTLSKADYEKHKVYACEVTHQGLSSPVTKSFNRGEC | 639 | 42.9 | 732
